Reference: the supplement of paper PMC9112550, “Optimization of the antimicrobial peptide Bac7 by deep mutational scanning” (BMC Biology, 2022)
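Also: peptides expressed intracellularly from a pBAD plasmid library in pooled LB shake-flask culture, induced with 0.3% L-arabinose, DNA abundance read by NGS, three biological replicates, DESeq2 with apeglm shrinkage.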

The sequences below were run on Escherichia coli TOP10 (assay: shrunken log2 fold change of peptide-encoding DNA abundance (4.5 h post-induction vs induction); higher = less antimicrobial activity (less host growth inhibition)). Conditions: time post-induction: 4.5 h; library: site-saturation at positions 5, 18, 19, 20.
In the case of RRIRNRPPRLPRPRPRPAVSPRP, the “shrunken log2 fold change” value is reported as -0.203. With RRIRVRPPRLPRPRPRPNVSPRP the “shrunken log2 fold change” value was -0.0331. For RRIRMRPPRLPRPRPRPSYMPRP, the “shrunken log2 fold change” value was -0.276. RRIRYRPPRLPRPRPRPAMEPRP was tested, and the “shrunken log2 fold change” value was 0.0738. With RRIRTRPPRLPRPRPRPCTLPRP the “shrunken log2 fold change” value was -0.314. RRIRFRPPRLPRPRPRPGILPRP was tested, and the “shrunken log2 fold change” value was -0.187. In the case of RRIRIRPPRLPRPRPRPLPPPRP, the “shrunken log2 fold change” value is reported as 0.127. RRIRIRPPRLPRPRPRPLICPRP was tested, and the “shrunken log2 fold change” value was -0.738. For RRIRLRPPRLPRPRPRPEWLPRP, the “shrunken log2 fold change” value was 0.315. RRIRGRPPRLPRPRPRPHNEPRP was tested, and the “shrunken log2 fold change” value was 0.264. RRIRGRPPRLPRPRPRPQEGPRP was tested, and the “shrunken log2 fold change” value was 0.0358. RRIRWRPPRLPRPRPRPREHPRP was tested, and the “shrunken log2 fold change” value was 0.822. For RRIRRRPPRLPRPRPRPGEKPRP, the “shrunken log2 fold change” value was 0.0687. In the case of RRIRWRPPRLPRPRPRPHTRPRP, the “shrunken log2 fold change” value is reported as -0.0595. For RRIRSRPPRLPRPRPRPIPSPRP, the “shrunken log2 fold change” value was -0.00523. RRIRVRPPRLPRPRPRPNSMPRP was tested, and the “shrunken log2 fold change” value was -0.575. RRIRPRPPRLPRPRPRPIKRPRP was tested, and the “shrunken log2 fold change” value was -0.125. RRIRERPPRLPRPRPRPECCPRP was tested, and the “shrunken log2 fold change” value was 0.066. With RRIRSRPPRLPRPRPRPLVGPRP the “shrunken log2 fold change” value was 0.0355. With RRIRTRPPRLPRPRPRPVQTPRP the “shrunken log2 fold change” value was 0.216. With RRIRSRPPRLPRPRPRPIPEPRP the “shrunken log2 fold change” value was 0.208. In the case of RRIRVRPPRLPRPRPRPADSPRP, the “shrunken log2 fold change” value is reported as -0.0859. RRIRKRPPRLPRPRPRPYWHPRP was tested, and the “shrunken log2 fold change” value was -0.684. RRIRWRPPRLPRPRPRPWGAPRP was tested, and the “shrunken log2 fold change” value was 0.297. For RRIRWRPPRLPRPRPRPLQAPRP, the “shrunken log2 fold change” value was 0.721. RRIRPRPPRLPRPRPRPDRFPRP was tested, and the “shrunken log2 fold change” value was -0.137. In the case of RRIRFRPPRLPRPRPRPFWQPRP, the “shrunken log2 fold change” value is reported as -0.321. For RRIRVRPPRLPRPRPRPTRQPRP, the “shrunken log2 fold change” value was 0.0865. For RRIRHRPPRLPRPRPRPSDMPRP, the “shrunken log2 fold change” value was 2.66. In the case of RRIRRRPPRLPRPRPRPEHGPRP, the “shrunken log2 fold change” value is reported as 0.0177. RRIRWRPPRLPRPRPRPLFPPRP was tested, and the “shrunken log2 fold change” value was 0.0582. With RRIRQRPPRLPRPRPRPSIRPRP the “shrunken log2 fold change” value was -0.523. RRIRTRPPRLPRPRPRPTFKPRP was tested, and the “shrunken log2 fold change” value was -0.227. In the case of RRIRTRPPRLPRPRPRPSEWPRP, the “shrunken log2 fold change” value is reported as -0.0236. For RRIRKRPPRLPRPRPRPKDLPRP, the “shrunken log2 fold change” value was 0.0142. With RRIRDRPPRLPRPRPRPSRFPRP the “shrunken log2 fold change” value was 0.128. With RRIRHRPPRLPRPRPRPQGTPRP the “shrunken log2 fold change” value was -0.284. For RRIRRRPPRLPRPRPRPQFCPRP, the “shrunken log2 fold change” value was -0.0309. In the case of RRIRKRPPRLPRPRPRPCCCPRP, the “shrunken log2 fold change” value is reported as 0.415. In the case of RRIRVRPPRLPRPRPRPNGRPRP, the “shrunken log2 fold change” value is reported as 0.222. RRIRNRPPRLPRPRPRPSPYPRP was tested, and the “shrunken log2 fold change” value was -0.507. RRIRWRPPRLPRPRPRPWAHPRP was tested, and the “shrunken log2 fold change” value was 0.0966. In the case of RRIRVRPPRLPRPRPRPCAHPRP, the “shrunken log2 fold change” value is reported as -0.0704. With RRIRKRPPRLPRPRPRPNGLPRP the “shrunken log2 fold change” value was -0.0579. For RRIRVRPPRLPRPRPRPNWGPRP, the “shrunken log2 fold change” value was 0.119. In the case of RRIRQRPPRLPRPRPRPNIDPRP, the “shrunken log2 fold change” value is reported as -0.516. For RRIRDRPPRLPRPRPRPNEGPRP, the “shrunken log2 fold change” value was -0.000567. For RRIRGRPPRLPRPRPRPRSMPRP, the “shrunken log2 fold change” value was 0.666. RRIRHRPPRLPRPRPRPVQAPRP was tested, and the “shrunken log2 fold change” value was 0.00472. With RRIRARPPRLPRPRPRPYFKPRP the “shrunken log2 fold change” value was -0.551. With RRIRFRPPRLPRPRPRPALFPRP the “shrunken log2 fold change” value was 0.173. RRIRLRPPRLPRPRPRPNRQPRP was tested, and the “shrunken log2 fold change” value was -0.407. With RRIRIRPPRLPRPRPRPWCLPRP the “shrunken log2 fold change” value was -1.11. RRIRSRPPRLPRPRPRPRIKPRP was tested, and the “shrunken log2 fold change” value was -0.00375. RRIRIRPPRLPRPRPRPKCYPRP was tested, and the “shrunken log2 fold change” value was -0.00654. RRIRKRPPRLPRPRPRPATKPRP was tested, and the “shrunken log2 fold change” value was 0.253. In the case of RRIRWRPPRLPRPRPRPAKCPRP, the “shrunken log2 fold change” value is reported as -0.0704. With RRIRDRPPRLPRPRPRPCNRPRP the “shrunken log2 fold change” value was -0.0148. For RRIRGRPPRLPRPRPRPNKYPRP, the “shrunken log2 fold change” value was -0.0952. RRIRNRPPRLPRPRPRPDACPRP was tested, and the “shrunken log2 fold change” value was -0.0102. In the case of RRIRSRPPRLPRPRPRPRGGPRP, the “shrunken log2 fold change” value is reported as 0.84. In the case of RRIRGRPPRLPRPRPRPRFRPRP, the “shrunken log2 fold change” value is reported as 0.3. With RRIRFRPPRLPRPRPRPENYPRP the “shrunken log2 fold change” value was 0.0219. In the case of RRIRERPPRLPRPRPRPRMHPRP, the “shrunken log2 fold change” value is reported as 0.0795. RRIRVRPPRLPRPRPRPTVMPRP was tested, and the “shrunken log2 fold change” value was 0.126. With RRIRMRPPRLPRPRPRPYAKPRP the “shrunken log2 fold change” value was 0.00938. With RRIRWRPPRLPRPRPRPGLYPRP the “shrunken log2 fold change” value was -0.036. For RRIRFRPPRLPRPRPRPPVQPRP, the “shrunken log2 fold change” value was 0.3. In the case of RRIRKRPPRLPRPRPRPEMYPRP, the “shrunken log2 fold change” value is reported as 0.214. For RRIRYRPPRLPRPRPRPFKLPRP, the “shrunken log2 fold change” value was -0.0907. With RRIRIRPPRLPRPRPRPESKPRP the “shrunken log2 fold change” value was -0.208. RRIRSRPPRLPRPRPRPTSDPRP was tested, and the “shrunken log2 fold change” value was -0.00252. For RRIRFRPPRLPRPRPRPLMAPRP, the “shrunken log2 fold change” value was -0.581. RRIRHRPPRLPRPRPRPVSPPRP was tested, and the “shrunken log2 fold change” value was 0.183. For RRIRMRPPRLPRPRPRPRAGPRP, the “shrunken log2 fold change” value was 1.08.
